Data published in the DeepSol protein solubility set.

Test: soluble on expression in E. coli; label from the status in PepcDB or PDB records
With “GMSRSPFQTFVWRSEIFECQSTDIQRFYSLLAIETERLGLGSKILGQAGHHPLYLLQSPGQKAGLPNLLISAGFHGEESAGPWGLLHFLSQLDGELFKRVNLSVLPLVNPTGFAKGHRFNELGENPNRGFFIENGKAKPGADTSAEGRILLEHAHLLQVASRDGILTCHEDVLMTDTYVYTFEPSQAPGRFSHSLRDALGQYFPIAADGDVDNCPVRSGVIFNHFDTSFESFLVRSGARVGCCSETPGQQPLDQRILANAAAMNTFVNMLAPELS” the “soluble on expression in E. coli” value was “soluble”. For “GMSTAAESEIRQLIERWMQAVRDRDIPGIIAPYADDIVAFDAIQALQFKGKSAYTAHWEMCMGMCTGPMVFELAQLTVHAAGDLALAHWLNRCGPGDDESQCGFMRATVGYRRQGGQWQVIHEHWSAPFDMETQKALFDLKP”, the “soluble on expression in E. coli” value was “soluble”. In the case of “GMTESDRDQEASMREVVIVKSTPQRGKFNAFAELVGKLVSETRDFPGCLGAYLMLAPERNEQVVMHIWETPDALEAYLTWRADRGDFLEINEYLEVEQDFKTYQLA”, the “soluble on expression in E. coli” value was “soluble”. With “GMTNHNNSGKKKVAILIEQAVEDTEFIIPCNGLKQAGFEVVVLGSRMNEKYKGKRGRLSTQADGTTTEAIASEFDAVVIPGGMAPDKMRRNPNTVRFVQEAMEQGKLVAAVCHGPQVLIEGDLLRGKQATGFIAISKDMMNAGADYLDEALVVDGNLITSREPGDLAIFTTAILSRLGYGGKDAALPDEKDRNAEWWKLADAWGGSTKGDIVRGLNTALGGERYSLEALEKYTEKESDVEAKALFQEMITNKQRHIEYLETYLTRLGEKPSLSANIANQYAKVKTALTGSDDIYQIRSALGDIQTGIGDIGNLCAMYTDPIATAIFKEIYKDLVKYEQRLVSLYRTRTNATVQPPKPTTGAAVSM” the “soluble on expression in E. coli” value was “soluble”. In the case of “GMTRRIAICAPSTPFTREDSARVIALAAAEFPDLSLSFHEQCFASEGHFAGSDALRLSAFLECANDDAFEAVWFVRGGYGANRIAEDALARLGRAASAKQYLGYSDAGTLLAALYAHRIGRSVHAPMPVDIRRPEGESAVRRTLGWLAGAREGLEPTLGAGAPAVAFNLMTLAMLCGTRLLPDLSGHVVMIEEVAEHHYAVDRLLFHVTSCLADAGIAGLRLGRVSDVPENDRPFGCSVEEMARHWCHRAGIAFLGTADIGHDVDNRIVPFGLA”, the “soluble on expression in E. coli” value was “soluble”. In the case of “GNFYAVRKGRETGIYNTWNECKNQVDGYGGAIYKKFNSYEQAKSFLG”, the “soluble on expression in E. coli” value was “soluble”. In the case of “GNYHVTLQASYIAKNVEDVEDAIGVAISQIGKLLNKGSLDYVDIDVGLTICPKCGEPIDCVLVVAKTAIVGILLSMKVFNAESPEHAVRIAKSSIGRALKDIP”, the “soluble on expression in E. coli” value was “not soluble”. With “GPDSEMCKDYRVLPRIGYLCPKDLKPVCGDDGQTYNNPCMLCHENLIRQTNTHIRSTGKCEESSTPGTTAASMPPSDE” the “soluble on expression in E. coli” value was “soluble”. In the case of “GPGSEHLTTVAAPFTCPIRRTVFAEGRRTIIFFRNIDATTAVFHQLRSAGFAVSLLHASLPYKVRKEMYADFASGRTNILCATDVAARGLDLHVDMVINFDVPTNALAYLSRSGRTARMGREGQVLNLYNKHQGVIVSAIKAFLKDNLPMEGLTNRKADMMQPRYAEWRTHKINALARSYVSLITR”, the “soluble on expression in E. coli” value was “not soluble”. In the case of “GPGSMAATTEVTPEHVLQLTAPSTGFLCPITANTYNIEFYSFVVRDADTKQVMFEVERDASTYPSVASLAQLPEEQQQAARTIFYRFPPSMLRKQRVSATLLFGVNGDKPVPDLRMIERHYFRNTLVKTFDFKFGFCIPHSRNTWEAVYDVPQFNAEWLEAIEKGTNEMTSDSFYFADGRLIMHNRAFYDYSAPEEEFTK”, the “soluble on expression in E. coli” value was “soluble”. With “GPGSMASSKVILEDTFTVAAVNEEGTVYSRVSRVRCTGEGGGLIITSDVNTGEFPLHSGDRLTIILTDSIELSEQAGSKHYDQSVYHRSTRLDDCDYAMHGRVYSMEVNESSLDVTVHISCGGLLTQIVGKPQSLKDVHYNSDVYILMKRPGS” the “soluble on expression in E. coli” value was “soluble”. In the case of “GPGSMASVSPSETGGTLITFLQQLRGTLVEIELKNASIVSGEIAYVDANMNTYMSHAKITSKGKNPVEVEEYMVRGSTIRYIIMPESLNTYDILKQASTKKNGASKK”, the “soluble on expression in E. coli” value was “soluble”. With “GPGSMAVGASSRTAQRTPARERRQIIPPDVSGQFRVTTFLSLDAFALQHFTLDDHSATGKEGRMFRAFGVTTWAPRIWDEGVSGVFLDLRGAYNYWKRADDQAQLVFDSLVAWIGALEAERDPTDRFMNLGRILLQAFRMQLMMASDPGIPVFNILARPCTAVHEADTFARTIQIPLERRGTQISLRCQLCHVTCP” the “soluble on expression in E. coli” value was “not soluble”. In the case of “GPGSMDDLVAVRIKDGIFAGNAGAAADKTLLIMNKITHIINCAGAEVADFFLGEPGFSYLSFPWKDAAGSVCTTILFDAGDDNIHRVVQFIDEALAAGECVLVHSVYGNSRSPALIAAYMIMKYGWKLESALLYLKMAHPDSDIKPHFQRQLRQFAKRHEVDHDIFAQDVDDSQFGLDNDQWMLRNTLLNGLLYKDQMANDLYRQCAEKVDVGNPVNGKAKKAHITFVDTKKGTDA”, the “soluble on expression in E. coli” value was “not soluble”. In the case of “GPGSMDVLVPRAASSGAVGRTPAARTFSAAPPSASSSLCVVGSADHGLKVFNLCTMRELKTLYTKTCGHTEWVTACRFLSDRRVISGGMDSKLCLWNDVTRGGPGRCVDLLGHTGSISQVEVNERHGRSIAMSSSYDRTIRVWELDGIAGGREMGCLSGHKGPVTQFSWLETEVLSGDRQGTVKLWDVETAQCHLTASSKRGQIGSLAHLVHPGVGHLALFGDQGGALTVVDARGPSSAKPLFQDVLHPGGMVTFIRAPSPTAVSAPLIVTCGADKRIIVRDARHNFAEVCAITDHDDFVYSMEVIGNILLSGAGNGRLLVHDVETGELLYELKANAAAVREMFASPSVLVAAGDDGNAKVFDFM”, the “soluble on expression in E. coli” value was “not soluble”. For “GPGSMEEGVDLREGLPEDVLAAVIAAPGQVTVEEARAQLNSSTSFRVDAGLVHLTADGAREQSQMETMLLKLATKIPPTGVSGAQFRAILEDEAPHFQPSAVGALSLKEAVQRYPRLFDVETDTTGKWFVRPAGVGKDGRASVGKNSGPISIINFCSERALMGNQADYVPLHVAMREESVASEGVLRDLVDSEELSKQLQIRFSVRLRPKRPVTNAFCFVDGDEIGLEAVDAIWKEMNLSDKSTRLVARQPTSRKHNSSDIVAPADMPTYAVVERKARELSLTQSVVLQDVIYMCSLRQFSLYADHIAKLNAFPDADVYVCCPSKVKLVAQKQFVPL”, the “soluble on expression in E. coli” value was “not soluble”. For “GPGSMELALEAMDAAEPPVSAAEKARRLALLRASSAEEARSLVALHDAAALAELRAAIMDSFPDERHDPEMSVHLDQIIWGRCPIRIDVAGAWTDTPPYAILSGGSVINVAVELNGQPPVQVYVRVREDPIIMMHSIDSGEQLSVSSFDEIRTYATMQNPFSIPKAALALCGFLPEFCATEYATLREQLAARFGGHGLEISLFVAIPTGSGLGTSSIVAGTVLRSLAEFCKLPWDNHDVCRRVLLIEQMLTAGGGWQDQYGGLFEGLKLVQCVPGLPCLPTVRWMPDSVYTDPRFAACHLLYYTGITRMAKGILGEIVRDVLLNNGATLQLLREMGGPTTAAMYDAITTGNYKGYARLVHRTWEQKKRLDDGVCNPTVQSIVDIVEPYVWGLTLPGAGGGGYMYMCAKDEACARRIRELLTANPPNGNARFVEMSVSASGLQISRS”, the “soluble on expression in E. coli” value was “not soluble”. For “GPGSMERTPTARIRDVIDSQLALRSSGFLPGNSTPDQLLHLRAAVHRNAPQHRTAAYFVDHANAFGTVGPDAVILEMRRLSIPNRIARWSAACLNSTSAVVCIDKLTPSSRTLTRGAPQGTVLAPIMFVVVMQSRCSCPSNVPYFAEGSSLMTALSPHSRATGMRSTRPQKKA”, the “soluble on expression in E. coli” value was “not soluble”. With “GPGSMERYAFAEDYKNARGIPRVEYISDMATFVKNNGGADALISRLILDSSKYEHTEKRLVSSMANLDHKIPTIKKTLHALNFLKKRLQEDQTPVRSYYCLTDAVFGEAEVVPQETVHLWMGAKVMVEYTFDEALQLLEKNLANAETNLKATKEDLAWVQEQMTNLQINISRVYNYDLKNKRTNGGAAEPSA” the “soluble on expression in E. coli” value was “soluble”. In the case of “GPGSMETFRERTLANRYQPRQHLPPEFPGVLKEYAREVLREQPEDILQWSANYFKRLAREMDAKPAGEHRMTAPALPHLESRPNTREEEEEEYGERLQQYIDMFVEHDSENNGVLPVKAIKEALLKSYGLTLPQALYVLTATQLVEKEPVNYAEFACESFPALRFVWSTEHNFQVSNREDTTVHGLSRIDVQQEFLKLLRFADRSDTSLLSIDQYMDVLRCAPYHLTTRDLRILRVEAELNERHEVNYEEELLHIFDRLLLAEQFAQLDSDD”, the “soluble on expression in E. coli” value was “soluble”. In the case of “GPGSMEYNARYQVSPRDQFLRKVVVVPYGVLGMQMTLQGGLVRAGSEPDESTFIVDPANLRHIFTTAVGATGASGAIYNMLGLRGPFPDEVVQAISRVCDTKFYKYGERANVIHVVDPDFREGAWSEREAAVELSRAYRNVFHEFVRGDGDVLRVPPLSSGVLSGSLYNQLPIITQSAVAMAFEQLHTFDREYLLRRDKQVELCVFMNREWDMYQNVFKNCTQPSKL”, the “soluble on expression in E. coli” value was “soluble”. In the case of “GPGSMFTQISNAHTEVVTSLVFSPHVVTTCEGGLLCSTSGDDTTALWDLRAGPGVSQRAAHLTGHHVGPVNHALFHPSNAHTLLTASDDRSIGCWDLRRPDRVVGAVSGFQEGVNKMLWLPVTSDGCRGTGGSSSGGGGSVVSACDDGHVYVHALALPDSGSESATVAGAAPVPQVGALVDKFRVSTSTVNDIVLAPNSTSILITASEDCALRSWSLRHAQQMTNTSVGLMEDRLLATLDEFENPVNHVVVVPSGLMAPVESRAAGEDPESSSSRSPAGAAGDAEESADAAAASTGFPRAYQQVHGGDDVEDAEVGSDAGSSAGARQPRRATDISEAAGTACWLLAACSECVFGVDFALRVGEFGTGARAFVGHQDYVRGLEFTSEGKLLTVSDDSTAIEWDLATTDPIRQVKLHEGLVMSSAVSPSRNLLATGTDRGELRVWRLPFATERIGGSP”, the “soluble on expression in E. coli” value was “not soluble”. For “GPGSMHVSSPQRAKSEASQPPNGSPPLSSSEPAAVHLYDLDTVFLSKTVISLTDVFTNSTDGPFDLSPLCAPQQQGVEEQQRLQQAAATTASSPSTGDAHCSPSSGATHAHMCSTSLPFSGGSTLRPKAVARGADGQWRTVSTDRGAPASSAFTTACNKPPSQEAHARMLLVPLDSYHFLLTYHDVDVAGQLRGRCDKQTAMATMERLSAASPGCRPPRSGICVVRRLEGEQRGATKASSAATAVLAGAASATRPTLSRIAHGLPLDAFDGWVRDYTVYGLSCNEAVLRAAWEDKARERAEGTLAMPAGAVVEVGESAAPGHESAGGGGSGEERRVTGGGNSRGDNVGGVHISVPPASGSSAEATVEGAAALAPQLSDAPSVLVPTDGAAVGEGKDAATFASPDAARAAMLSPSLDRLHCSSTTSSSSTATPTPSPPTERSEEGGKVGGTVSTTMSASPASTAAQQQQQQNDVLWEEERQRTQRAAAQLRHRFLVSDSAQHALWALEVHLPAMKVRAVSPAEFYALEVEESDEERCQQLPGTARMMATMVTMKHRRHAALQKHERILLMHLHRDWRFLAGRQRLQSRAAARPSQVTATLSRARPAPTHRGRARHRRQIR”, the “soluble on expression in E. coli” value was “soluble”. In the case of “GPGSMIHPMAVDRLLPSQEAAELIELTREIADKVLDPIVDRHEKDETYPEGVFEQLGAAGLLSLPQPEEWGGGGQPYEVYLQVLEEIAARWASVAVAVSVHSLSSHPLLVFGTEEQKKRWLPGMLSGEQIGAYSLSEPQAGSDAAALRCAATPTDGGYVINGSKSWITHGGKADFYTLFARTGEGSRGVSCFLVPADQPGLSFGKPEEKMGLHAVPTTSAFYDNARIDADRRIGEEGQGLQIAFSALDSGRLGIAAVATGLAQAALDEAVAYANERTAFGRKIIDHQGLGFLLADMAAAVATARATYLDAARRRDQGRPYSQQASIAKLTATDAAMKVTTDAVQVFGGVGYTRDYRVERYMREAKIMQIFEGTNQIQRLVIARGLTR”, the “soluble on expression in E. coli” value was “soluble”.
